Experimental data as given in patent US20090130070A1, “METHOD OF TREATMENT” (The University of Queensland, priority 2004, published 2009).
Entries after “also recorded” stand apart in the source; their conditions may differ.

Legend:
[1] = Penetration of fluorescently labeled fetuin into lamb burn wounds from different carriers; assay type: in vivo, Merino lambs; conditions: 2 mg/mL, lamb scald wounds, 24 hours
Experimental: Lyophilized bovine Fetuin (Sigma) was dissolved in purified water at a concentration of 10 mg/mL. Aliquots of 200 μL were labeled using a FluoReporter Oregon Green® 488 Protein Labeling Kit (Molecular Probes). Assuming 85% recovery from the kit, the solution was dried down using a vacuum concentrator (Labconco) and added at 2 mg/mL to one of 3 different carriers: paraffin cream, aqueous cream (Orion, Australia) or dissolved in purified water to make an aqueous solution.
Two Merino lambs were scalded under general anesthesia as described previously. Eight wounds were created on each animal; 2× control wounds with nothing added, 2× aqueous solution treated wounds, 2× aqueous cream treated wounds and 2× paraffin cream treated wounds. The wounds were dressed with Melolin and Sleek and the lambs awoken and returned to the pens. 24 hours later the lambs were euthanized and the burn wounds (as well as an unburned area) were collected and fixed in formalin for paraffin embedding. Sections of (4 μm) were taken and examined under a Nikon EP epifluorescent microscope to determine the extent of fetuin penetration in each of the carriers. Brightfield transmittance and Fluorescent green images were captured with a Spot RT slider cooled CCD camera and overlayed with using Photoshop software.

BMP-2 = molecular target: T1, BMP-2 (Homo sapiens, UniProt P12643); conditions: cited from earlier work
T1 sequence (P12643 283-396): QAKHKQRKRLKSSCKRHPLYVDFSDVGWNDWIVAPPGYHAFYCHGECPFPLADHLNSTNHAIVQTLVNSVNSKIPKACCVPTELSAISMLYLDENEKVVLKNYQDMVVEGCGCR

TGF-β1 = TGF-β1 (Homo sapiens, UniProt P01137); conditions: cited from earlier work
BMP-6 = molecular target: T2, BMP-6 (Homo sapiens, UniProt P22004); conditions: cited from earlier work
T2 sequence (P22004 375-513): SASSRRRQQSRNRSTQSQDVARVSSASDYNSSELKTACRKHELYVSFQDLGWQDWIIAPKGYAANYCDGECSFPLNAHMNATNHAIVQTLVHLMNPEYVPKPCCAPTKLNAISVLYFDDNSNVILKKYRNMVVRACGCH

BMP-4 = molecular target: T3, BMP-4 (Homo sapiens, UniProt P12644); conditions: cited from earlier work
T3 sequence (P12644 293-408): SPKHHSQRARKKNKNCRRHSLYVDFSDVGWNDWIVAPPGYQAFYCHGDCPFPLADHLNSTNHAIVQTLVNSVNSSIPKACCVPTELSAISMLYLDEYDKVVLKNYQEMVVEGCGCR

TGF-β1, sequence (P01137 279-390 limits assumed, species assumed): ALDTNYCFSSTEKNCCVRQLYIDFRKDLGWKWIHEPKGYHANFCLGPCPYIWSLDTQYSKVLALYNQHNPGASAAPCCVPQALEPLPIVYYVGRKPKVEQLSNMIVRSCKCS

Fetuin: bovine fetuin A (Sigma); glycoprotein also called alpha2-Heremans-Schmid-glycoprotein (AHSG)
penetration of labeled fetuin into burn tissue ([1]; aqueous solution): good penetration; also recorded: on the epidermis and at the end of hair follicles
penetration of labeled fetuin into burn tissue ([1]; oil based paraffin cream): little or no penetration
penetration of labeled fetuin into burn tissue ([1]; water based (aqueous) cream): good penetration; also recorded: penetration to the base of the hair follicles
binding to BMP-2 (BMP-2): strongly
binding to TGF-β1 (TGF-β1): strongly
binding to BMP-6 (BMP-6): strongly
binding to BMP-4 (BMP-4): strongly
